The values that follow come from patent US11180770B2, “HPPD variants and methods of use” (BASF Agricultural Solutions Seed US LLC, priority 2017, dated 2021).

This data set concerns HPPD polypeptides. In words: coupled HPPD activity assay: turnover and residual turnover in crude extracts. In kind it is biochemical, Pseudomonas fluorescens. The following applies: for Residual turnover [%]: 100 μM Cmpd. 1, signal change with inhibitor divided by signal change without inhibitor; for Turnover: absence of Cmpd. 1, kinetic changes in absorbance (OD) at 320 nm, 30 min; for Turnover / Residual turnover: high substrate concentration; for Residual turnover: presence of 100 μM Cmpd. 1, changes in absorbance (OD) at 320 nm. On the procedure:
The activity of HPPD polypeptides was determined in absence or presence of HPPD inhibitors using the coupled HPPD activity assay (FIG. 1).
For the determination of the residual activity, the apparent kinetic constant (kapp) of the determined substrate conversion was measured as kinetic changes in absorbance (OD) at 320 nm in a coupled assay, in that homogentisate (HGA) formed by HPPD from HPP is directly converted into the well absorbing molecule maleylacetoacetate (MAA) by a second enzyme homogentisate dioxygenase (HGD), applied in excess uniformly in all assays (see FIG. 1). The measurements were performed in 384 micro titer plates (Greiner Bio-One GmbH, Frickenhausen, Germany) by plate readers (Tecan infinite M1000 or M1000PRO, Tecan, Männedorf, Switzerland). The kcat/kM ratio of an enzymatic activity is proportional to the apparent kinetic constant kapp and is proportional to kcat/kM*[E] ([E]=enzyme concentration). […] As both kapp measurements in the presence and absence of inhibitor were performed by use of the identical enzyme sample, crude or purified, and thereby at the same enzyme concentration, the enzyme concentration eliminates from the calculation of residual activity and the ratio of both kapp directly indicates the change of kM due to the inhibition.
The assay solution used for determination of residual activities in raw HPPD polypeptide samples was composed by 200 mM sodium phosphate (Merck, Darmstadt, Germany, pH 7.0), 5 mM MgCl2 (Merck, Darmstadt, Germany), 20 mM ascorbate (Sigma-Aldrich, St. Louis, USA), 1 mM DTT (Sigma-Aldrich, St. Louis, USA), 0.1% Pluronic F-68 (Sigma-Aldrich, St. Louis, USA), 40 μM FeSO4 (Sigma-Aldrich, St. Louis, USA), about 8 mg/ml purified HGD and 500 μM HPP from a 1 M stock solution in DMSO (Sigma-Aldrich, St. Louis, USA) and equilibrated for 20 min on ice. For every HPPD polypeptide sample two assays were performed in quadruplets, whereby 5 μl of HPPD polypeptide sample were mixed firstly with 5 μl buffer (1×BugBuster®; (Merck, Darmstadt, Germany); in 140 mM Tris, pH 7.8, with 1:25000 diluted BNase®; Qiagen, Hilden, Germany)) or 5 μl inhibitor diluted in the same buffer from a 0.1 M stock solution in DMSO (200 μM resulting in 100 μM in the HPPD polypeptide/inhibitor sample) in the reference and inhibition assay, respectively, and subsequently with 10 μl assay solution. The change in absorbance at 320 nm was followed in 1 min intervals for 30 min. The kapp values were calculated as signal slope over time in the early phase of the kinetic reaction, usually for the first 5-10 minutes of the measurements. Additionally and according to the calculated residual activity, the total conversion, i.e. the absolute change in signal, in the 30 min timeframe was monitored as measure of turnover, and a residual turnover was calculated by dividing the change in signal in the presence of inhibitor by the change in signal in the reference sample without inhibitor.
Residual turnover were determined according to Example 3 by measuring total change in signal in the presence and absence of Cmpd. 1 (2-chloro-3-(methylsulfanyl)-N-(1-methyl-1H-tetrazol-5-yl)-4-(trifluoromethyl)benzamide). For each mutant HPPD polypeptide, the total change in signal without HPPD inhibitor herbicides served for normalization of the total change in signal in the presence of the herbicide.

B1: 49 (protein)
chain: MADLYENPMGLMGFEFIEFASPTPGTLEPIFEIMGFTKVATHRSKNVHLYRQGEINLILNNEPNSIASYFAAEHGPSVCGMAFRVKDSQKAYNRALELGAQPIHIDTGPMELNLPAIKGIGGAPLYLIDRFGEGSSIYDIDFVYLEGVERNPVGAGLKVIDHLTHNVYRGRMVYWANFYEKLFNFREARYFDIKGEYTGLTSKAMSAPDGMIRIPLNEESSKGAGQIEEFLMQFNGEGIQHVAFLTDDLVKTWDALKKIGMRFMTAPPDNYYEMLEGRLPDHGEPVDQLQARGILLDGSSVEGDKRLLLQIFSETLMGPVFFEFIQRKGDDGFGPHSFKVLFEQMERDQVRRGVLTAD
modifications: mutant HPPD polypeptide
For the molecule B1, the “Residual turnover [%]” value is recorded as 33%, the Turnover is on record as 0.316 and the Residual turnover came out at 0.103.

B2: 56 (protein)
chain: MADLYENPMGLMGFEFIEFASPTPGTLEPIFEIMGFTKVATHRSKNVHLYRQGEINLILNNEPNSIASYFAAEHGPSVCGMAFRVKDSQKAYNRALELGAQPIHIDTGPMELNLPAIKGIGGAPLYLIDRFGEGSSIYDIDFVYLEGVERNPVGAGLKVIDHLTHNVYRGRMVYWANFYEKLFNFREARYFDIKGEYTGLTSKAMSAPDGMIRIPLNEESSKGAGQIEEFLMQFNGEGIQHVAFLTDDLVKTWDALKKIGMRFMTAPADNYYEMLEGRLPDHGEPVDQLQARGILLDGSSVEGDKRLLLQIFSETLMGPVFFEFIQRKGDDGFGPHSFKVLFEQIERDQVRRGVLTAD
modifications: mutant HPPD polypeptide
Consider B2, for which the “Residual turnover [%]” value turned out to be 57%, the Turnover came to 0.152 and the Residual turnover was determined as 0.086.

B3: 52 (protein)
chain: MADLYENPMGLMGFEFIEFASPTPGTLEPIFEIMGFTKVATHRSKNVHLYRQGEINLILNNEPNSIASYFAAEHGPSVCGMAFRVKDSQKAYNRALELGAQPIHIDTGPMELNLPAIKGIGGAPLYLIDRFGEGSSIYDIDFVYLEGVERNPVGAGLKVIDHLTHNVYRGRMVYWANFYEKLFNFREARYFDIKGEYTGLTSKAMSAPDGMIRIPLNEESSKGAGQIEEFLMQFNGEGIQHVAFLTDDLVKTWDALKKIGMRFMTAPADNYYEMLEGRLPDHGEPVDQLQARGILLDGSSVEGDKRLLLQIFSETLMGPVFFEFIQRKGDDGFGPDSFKVLFEQIERDQVRRGVLTAD
modifications: mutant HPPD polypeptide
In the case of B3, the “Residual turnover [%]” value came to 47%, the Turnover is on record as 0.189 and the Residual turnover is 0.088.

B4: 50 (protein)
chain: MADLYENPMGLMGFEFIEFASPTPGTLEPIFEIMGFTKVATHRSKNVHLYRQGEINLILNNEPNSIASYFAAEHGPSVCGMAFRVKDSQKAYNRALELGAQPIHIDTGPMELNLPAIKGIGGAPLYLIDRFGEGSSIYDIDFVYLEGVERNPVGAGLKVIDHLTHNVYRGRMVYWANFYEKLFNFREARYFDIKGEYTGLTSKAMSAPDGMIRIPLNEESSKGAGQIEEFLMQFNGEGIQHVAFLTDDLVKTWDALKKIGMRFMTAPSDNYYEMLEGRLPDHGEPVDQLQARGILLDGSSVEGDKRLLLQIFSETLMGPVFFEFIQRKGDDGFGPHSFKVLFEQMERDQVRRGVLTAD
modifications: mutant HPPD polypeptide
As to B4, the “Residual turnover [%]” value is given as 44%, the Turnover was determined as 0.315 and the Residual turnover is 0.138.

B5: 51 (protein)
chain: MADLYENPMGLMGFEFIEFASPTPGTLEPIFEIMGFTKVATHRSKNVHLYRQGEINLILNNEPNSIASYFAAEHGPSVCGMAFRVKDSQKAYNRALELGAQPIHIDTGPMELNLPAIKGIGGAPLYLIDRFGEGSSIYDIDFVYLEGVERNPVGAGLKVIDHLTHNVYRGRMVYWANFYEKLFNFREARYFDIKGEYTGLTSKAMSAPDGMIRIPLNEESSKGAGQIEEFLMQFNGEGIQHVAFLTDDLVKTWDALKKIGMRFMTAPADNYYEMLEGRLPDHGEPVDQLQARGILLDGSSVEGDKRLLLQIFSETLMGPVFFEFIQRKGDDGFGPDSFKVLFESKERDQVRRGVLTAD
modifications: mutant HPPD polypeptide
In the case of B5, the “Residual turnover [%]” value stood at 56%, the Turnover was found to be 0.131 and the Residual turnover was found to be 0.074.

B6: 54 (protein)
chain: MADLYENPMGLMGFEFIEFASPTPGTLEPIFEIMGFTKVATHRSKNVHLYRQGEINLILNNEPNSIASYFAAEHGPSVCGMAFRVKDSQKAYNRALELGAQPIHIDTGPMELNLPAIKGIGGAPLYLIDRFGEGSSIYDIDFVYLEGVERNPVGAGLKVIDHLTHNVYRGRMVYWANFYEKLFNFREARYFDIKGEYTGLTSKAMSAPDGMIRIPLNEESSKGAGQIEEFLMQFNGEGIQHVAFLTDDLVKTWDALKKIGMRFMTAPADNYYEMLEGRLPDHGEPVDQLQARGILLDGSSVEGDKRLLLQIFSETLMGPVFFEFIQRKGDDGFGPDSFKVLFEQKERDQVRRGVLTAD
modifications: mutant HPPD polypeptide
In the case of B6, the “Residual turnover [%]” value is 66%, the Turnover was determined as 0.089 and the Residual turnover worked out at 0.059.

B7: 53 (protein)
chain: MADLYENPMGLMGFEFIEFASPTPGTLEPIFEIMGFTKVATHRSKNVHLYRQGEINLILNNEPNSIASYFAAEHGPSVCGMAFRVKDSQKAYNRALELGAQPIHIDTGPMELNLPAIKGIGGAPLYLIDRFGEGSSIYDIDFVYLEGVERNPVGAGLKVIDHLTHNVYRGRMVYWANFYEKLFNFREARYFDIKGEYTGLTSKAMSAPDGMIRIPLNEESSKGAGQIEEFLMQFNGEGIQHVAFLTDDLVKTWDALKKIGMRFMTAPADNYYEMLEGRLPDHGEPVDQLQARGILLDGSSVEGDKRLLLQIFSETLMGPVFFEFIQRKGDDGFGPDSFKVLFEQVERDQVRRGVLTAD
modifications: mutant HPPD polypeptide
In the case of B7, the “Residual turnover [%]” value was 54%, the Turnover was determined as 0.199 and the Residual turnover turned out to be 0.107.

B8: 55 (protein)
chain: MADLYENPMGLMGFEFIEFASPTPGTLEPIFEIMGFTKVATHRSKNVHLYRQGEINLILNNEPNSIASYFAAEHGPSVCGMAFRVKDSQKAYNRALELGAQPIHIDTGPMELNLPAIKGIGGAPLYLIDRFGEGSSIYDIDFVYLEGVERNPVGAGLKVIDHLTHNVYRGRMVYWANFYEKLFNFREARYFDIKGEYTGLTSKAMSAPDGMIRIPLNEESSKGAGQIEEFLMQFNGEGIQHVAFLTDDLVKTWDALKKIGMRFMTAPADNYYEMLEGRLPDHGEPVDQLQARGILLDGSSVEGDKRLLLQIFSETLMGPVFFEFIQRKGDDGFGPHSFKVLFESKERDQVRRGVLTAD
modifications: mutant HPPD polypeptide
As to B8, the “Residual turnover [%]” value was determined as 50%, the Turnover was found to be 0.189 and the Residual turnover was 0.095.

B9: 57 (protein)
chain: MADLYENPMGLMGFEFIEFASPTPGTLEPIFEIMGFTKVATHRSKNVHLYRQGEINLILNNEPNSIASYFAAEHGPSVCGMAFRVKDSQKAYNRALELGAQPIHIDTGPMELNLPAIKGIGGAPLYLIDRFGEGSSIYDIDFVYLEGVERNPVGAGLKVIDHLTHNVYRGRMVYWANFYEKLFNFREARYFDIKGEYTGLTSKAMSAPDGMIRIPLNEESSKGAGQIEEFLMQFNGEGIQHVAFLTDDLVKTWDALKKIGMRFMTAPADNYYEMLEGRLPDHGEPVDQLQARGILLDGSSVEGDKRLLLQIFSETLMGPVFFEFIQRKGDDGFGPHSFKVLFEQKERDQVRRGVLTAD
modifications: mutant HPPD polypeptide
Take B9: the “Residual turnover [%]” value is on record as 59%, the Turnover was determined as 0.167 and the Residual turnover came out at 0.099.
